Source: patent publication US20240247301A1, “DIAGNOSTIC ASSAY FOR CLASSIC INBORN GALACTOSEMIA” (Ohio State Innovation Foundation, priority 2022, published 2024)
“And” between values parts separate entries of the source, which are not always exact repeats. Identical values can stand only once.

Substrate: O=P(O)(O)O[C@H]1O[C@H](CO)[C@H](O)[C@H](O)[C@H]1O
Experiment: purified protein, by the assay type
[1] = other: SUMO-tagged YidA as coupling enzyme, pH 8.0

B1: Duarte GalT (galactose-1-phosphate uridylyltransferase, Duarte variant) (Homo sapiens; N314D) (protein)
chain: MSRSGTDPQQRQQASEADAAAATFRANDHQHIRYNPLQDEWVLVSAHRMKRPWQGQVEPQLLKTVPRHDPLNPLCPGAIRANGEVNPQYDSTFLFDNDFPALQPDAPSPGPSDHPLFQAKSARGVCKVMCFHPWSDVTLPLMSVPEIRAVVDAWASVTEELGAQYPWVQIFENKGAMMGCSNPHPHCQVWASSFLPDIAQREERSQQAYKSQHGEPLLMEYSRQELLRKERLVLTSEHWLVLVPFWATWPYQTLLLPRRHVRRLPELTPAERDDLASIMKKLLTKYDNLFETSFPYSMGWHGAPTGSEAGANWDHWQLHAHYYPPLLRSATVRKFMVGYEMLAQAQRDLTPEQAAERLRALPEVHYHLGQKDRETATIA
- Km [1]: 890 ± 30 µM
- kcat [1]: 14.8 ± 0.867 s⁻¹
- Km (other: mean ± SD of three independent trials, pH 8.0): 660 ± 20 µM and 530 ± 40 µM
- Km (other: single trials, ± curve-fit error, pH 8, 37° C., 0.8 mM UDP-glucose, 37.0 °C): 550 ± 90 µM and 480 ± 30 µM
- Km (other: single trials, ± curve-fit error, pH 8.0, 37° C., 1 mM UDP-glucose, 37.0 °C): 670 ± 180 µM and 630 ± 140 µM and 670 ± 150 µM
